Data as given in patent publication US20250179143A1 (CHILDREN S HOSPITAL OF PHILADELPHIA, published 2025).
Numbering of substitutions follows the chain as printed. In names and notes the source's numbering stands.

B1: hTAPBPR^RQ (K211R, R270Q) (other)
chain: KPHPAEGQWRAVDVVLDCFLAKDGAHRGALASSEDRARASLVLKQVPVLDDGSLEDFTDFQGGTLAQDDPPIIFEASVDLVQIPQAEALLHADCSGKEVTCEISRYFLQMTETTVKTAAWFMANMQVSGGGPSISLVMKTPRVTKNEALWHPTLNLPLSPQGTVRTAVEFQVMTQTQSLSFLLGSSASLDCGFSMAPGLDLISVEWRLQHRGRGQLVYSWTAGQGQAVRKGATLEPAQLGMARDASLTLPGLTIQDEGTYICQITTSLYQAQQIIQLNIQASPKVRLSLANEALLPTLICDIAGYYPLDVVVTWTREELGGSPAQVSGASFSSLRQSVAGTYSISSSLTAEPGSAGATYTCQVTHISLEEPLGASTQVVPPERR
notes: domain: luminal domain; As m1
B2: hTAPBPR^KRQ (R105K, K211R, R270Q) (other)
chain: B1 chain with R105K
notes: domain: luminal domain; As m1

Tests used:
[1] = biological target: HLA-A*02:01/hb2m/KILGFVFJV (peptide-loaded) (human); test: SPR, peptide-loaded HLA-A*02:01
[2] = biological target: HLA-A*02:06/hb2m/KILGFVF(bF)V (human); test: cell-based or functional assay
[3] = biological target: HLA-A*01:01/hb2m/STAPGJLEY (peptide-loaded) (human); test: cell-based or functional assay
[4] = biological target: HLA-A*02:01/hb2m/KILGFVF(bF)V (human); test: cell-based or functional assay

| Binder | fold lower KD than hTAPBPR [1] [fold] | k2overall, fold against hTAPBPR [2] [fold] | kapp of fluorescent peptide binding at 5 uM chaperone (FP) [3] [s⁻¹] | k2overall, fold against hTAPBPR [4] [fold] |
| --- | --- | --- | --- | --- |
| B1 | ~7 | ~9 | 0.00014 | ~60 |
| B2 | ~7 | ~9 | 0.00013 | ~60 |
